We go through 10 molecules from patent publication US20070286861A1, “Immunoglobulins” (published 2007).

A word on the IC50: it is the concentration needed to halve the response being measured. For orientation: % inhibition means the percentage by which the read-out fell short of the control.

Substitutions are numbered along the chain they refer to. Where two headings read alike, the source gives them in different places.

The target in assay [1] is T1, glycosylated human OSM produced in CHO cells (human, glycosylated (CHO cell glycosylated)).
T1 chain: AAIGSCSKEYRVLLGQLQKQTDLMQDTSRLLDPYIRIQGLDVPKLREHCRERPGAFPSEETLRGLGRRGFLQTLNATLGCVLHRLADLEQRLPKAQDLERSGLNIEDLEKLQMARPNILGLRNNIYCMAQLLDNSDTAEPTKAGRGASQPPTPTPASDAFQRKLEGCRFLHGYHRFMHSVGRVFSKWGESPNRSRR
As to the kind of experiment: gp130 inhibition ELISA (Table 4; OSM taken as CHO produced hOSM of FIG. 17). A general note: In an ELISA, binding on a coated surface is turned into a signal by an enzyme label.

Assay [2] has as its target T2, glycosylated human OSM produced in CHO cells (human).
T2 sequence (chain, glycosylated (CHO cell glycosylated)): T1 chain

The target of assay [3] is T3, human Oncostatin M (hOSM) (human).
T3 chain: T1 chain
As to the kind of experiment: gp130 inhibition ELISA (antibody pre-incubated with OSM; OSM bound to plate-coated gp130-Fc detected).

Assay [4] concerns the target T3, human Oncostatin M (hOSM).
Assay [5] concerns the target T3, human Oncostatin M (hOSM). As to the kind of experiment: gp130 inhibition ELISA.
The target in assay [6] is T4, cynomolgus monkey OSM (cOSM) (cynomolgus monkey).
T4 chain: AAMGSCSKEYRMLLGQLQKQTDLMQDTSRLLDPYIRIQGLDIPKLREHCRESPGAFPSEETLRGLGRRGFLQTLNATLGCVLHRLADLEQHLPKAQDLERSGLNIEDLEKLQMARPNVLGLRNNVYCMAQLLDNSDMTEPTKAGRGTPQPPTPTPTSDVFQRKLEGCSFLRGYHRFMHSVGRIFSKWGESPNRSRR
As to the kind of experiment: gp130 inhibition ELISA.

The target of assay [7] is T3, human Oncostatin M (hOSM). Nature of the assay: gp130 inhibition ELISA, CHO supernatant.
Assay [8] addresses T4, cynomolgus monkey OSM (cOSM). As to the kind of experiment: gp130 inhibition ELISA, CHO supernatant.
Assay [9] deals with T3, human Oncostatin M (hOSM). Nature of the assay: gp130 inhibition ELISA, CHO supernatant; legend: NA: inhibition is less than 50%.
The target of assay [10] is T3, human Oncostatin M (hOSM).
The target of assay [11] is T4, cynomolgus monkey OSM (cOSM).
The target in assay [12] is T3, human Oncostatin M (hOSM). As to the kind of experiment: gp130 ELISA.
For assay [13], the target named is T4, cynomolgus monkey OSM (cOSM). As to the kind of experiment: gp130 ELISA.
Assay [14] shares this target. As to the kind of experiment: gp130 inhibition ELISA, CHO supernatant; legend: NA: inhibition is less than 50%.

B1: 15E10 murine antibody (antibody, V domains shown)
VH: QVQLKQSGPGLVQPSQSLSITCTVSGFSLTNYGVHWVRQSPGKGLEWLGVIWRGGSTDYNAAFMSRLSITKDNSRSQVFFKMNSLQADDTAIYYCAKSPNSNFYWYFDVWGTGTTVTVSS
VL: QIVLTQSPTIMSASPGEKVTMTCSGSSSVSYMYWYQEKPGSSPRLLIEDTSNLASGVPARFSGSGSGTSYSLTISRMEAEDAATYYCQQWSSYPPTFGSGTKLEIK
As for B1, the IC50 came to 0.009 µg/mL in assay [1] and 0.059 µg/mL in assay [3]. Moreover, the IL-6 release from KB cells (KB cell assay), IC50 in assay [2] turned out to be 0.053 µg/mL; in assay [4] it was 0.195 µg/mL.

B2: 15E10 chimaeric antibody (antibody, V domains shown)
VH: B1 VH
VL: B1 VL
B2: the IC50 in assay [1] was found to be 0.019 µg/mL; in assay [5], 0.07 µg/mL; in assay [6], 0.06 µg/mL; in assay [3], 0.036 µg/mL. In addition, the IL-6 release from KB cells (KB cell assay), IC50 in assay [2] came out at 0.079 µg/mL; in assay [4] it was 0.11 µg/mL.

B3: humanised 15E10 antibody B3L2 (wild type Fc) (antibody, V domains shown)
VH: QVQLVESGGGVVQPGRSLRLSCAASGFSLTNYGVHWVRQAPGKGLEWVAVIWRGGSTDYNAAFMSRFTISKDNSKNTLYLQMNSLRAEDTAVYYCAKSPNSNFYWYFDVWGRGTLVTVSS
VL: EIVLTQSPATLSLSPGERATLSCSGSSSVSYMYWYQQKPGQAPRLLIEDTSNLASGIPARFSGSGSGTDYTLTISNLEPEDFAVYYCQQWSSYPPTFGQGTKLEIKR
In assay [1], B3 displayed an IC50 of 0.035 µg/mL. For the same molecule, the IL-6 release from KB cells (KB cell assay), IC50 in [2] came out at 0.123 µg/mL.

B4: humanised 15E10 antibody B4L2 (antibody, V domains shown)
VH: B3 VH with F67L
VL: B3 VL
B4: the IC50 in assay [7] came to 0.048 µg/mL; in [8], 0.04 µg/mL.

B5: humanised 15E10 antibody B4L1 (antibody, V domains shown)
VH: B3 VH with F67L
VL: EIVLTQSPATLSLSPGERATLSCSGSSSVSYMYWYQQKPGQAPRLLIYDTSNLASGIPARFSGSGSGTDFTLTISNLEPEDFAVYYCQQWSSYPPTFGQGTKLEIK
B5 yielded a 50% inhibitory concentration (IC50) in [8] of 0.167 µg/mL. In addition, the “% inhibition” value in assay [9] was less than 50%.

B6: humanised 15E10 antibody B1L2 (antibody, V domains shown)
VH: B3 VH with K71R, K97R
VL: B5 VL with Y48E, F70Y
B6: the IC50 was determined as 0.334 µg/mL in [7] and 0.11 µg/mL in assay [8].

B7: Humanised antibody 10D3 DLE (antibody, V domains shown)
VH: EVQLVQSGAEVKKPGASVKVSCKASGYIFTDYNMDWVRQAPGQKLEWIGDINPNNGGTIDNQKFKDRATLTVDKSTSTVYMELSSLRSEDTAVYYCARGIYYYGSHYFDYWGQGTLVTVSS
VL: EIVLTQSPSSLSASVGDRVTITCSATSSVSVMHWFQKKPGKAPKRWIYDTSKLASGVPSRFSGSGSGTDYTLTISSLQPEDFATYYCQQWSSNPLTFGGGTKVDIKR
Regarding B7, the results for the IL-6 release from KB cells (KB cell assay), IC50 in assay [10] and in [11] were 0.205 µg/mL and 0.07 µg/mL, respectively. The IC50 in assay [12] came out at 0.021 µg/mL; in [13] it was 0.059 µg/mL.

B8: humanised 15E10 antibody B1L1 (antibody, V domains shown)
VH: QVQLVESGGGVVQPGRSLRLSCAASGFSLTNYGVHWVRQAPGKGLEWVAVIWRGGSTDYNAAFMSRFTISRDNSKNTLYLQMNSLRAEDTAVYYCARSPNSNFYWYFDVWGRGTLV
VL: B5 VL
For the molecule B8, the “% inhibition” value in [9] and in assay [14] was less than 50% each time.

B9: 10D3 murine antibody (antibody, V domains shown)
VH: EVQLQQSGPELVKPGASVKISCKASGYIFTDYNMDWVKQSHGKKLEWIGDINPNNGGTIDNQKFKDKATLTVDKSSSTAYMELRSLTSEDTAVYYCARGIYYYGSHYFDYWGQGTTLTVSS
VL: QIVLTQSPAIMSASPGEKVTMTCSATSSVSVMHWFQKKSGTSPKRWIYDTSKLASGVPTRFSGSGSGTSYSLTISSMEAEDTATYYCQQWSSNPLTFGSGTKLELK
In the case of B9, in assay [3], the IC50 worked out at 0.107 µg/mL. The molecule further registered an IL-6 release from KB cells (KB cell assay), IC50 in [4] of 0.114 µg/mL.

B10: 10D3 chimaeric antibody (antibody, V domains shown)
VH: B9 VH
VL: B9 VL
As to B10, the values for the IC50 in assay [12], in assay [13] and in assay [3] were 0.032 µg/mL, 0.246 µg/mL and 0.057 µg/mL, respectively. Also, the IL-6 release from KB cells (KB cell assay), IC50 in assay [4] amounted to 0.107 µg/mL.
